US20250306026A1 (Dana-Farber, published 2025)
Bridge positions count the residues as written; N and C are the ends. Square brackets hold non-standard residues; d marks the D form. Ends that are not written are not given here. * marks the point of attachment. Biotin = O=C1N[C@H]2[C@H](CS[C@H]2CCCCC(=O)*)N1; S5 = C=CCCC[C@](C)(N)C(=O)O

Legend:
MCL-1 SAHBD = biological target: T1, MCL-1 SAHBD
T1 chain: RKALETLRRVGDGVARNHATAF

[1] = biological target: MCL-1 SAHBs that do not bind VLCAD
[2] = biological target: recombinant VLCAD (mature human VLCAD lacking its cleavable leader sequence, aa 40-655, 10x His-tagged) (human) (UniProt P49748); experiment: ITC, 200 µM Btn-peptide injected into 15 µM recombinant VLCAD, 25 °C, single binding site model
SCAD = biological target: T2, SCAD (mouse, UniProt Q07417 25-412); experiment: streptavidin pull-down with biotinylated SAHB from cellular lysate; western blot for SCAD
T2 sequence (looked up): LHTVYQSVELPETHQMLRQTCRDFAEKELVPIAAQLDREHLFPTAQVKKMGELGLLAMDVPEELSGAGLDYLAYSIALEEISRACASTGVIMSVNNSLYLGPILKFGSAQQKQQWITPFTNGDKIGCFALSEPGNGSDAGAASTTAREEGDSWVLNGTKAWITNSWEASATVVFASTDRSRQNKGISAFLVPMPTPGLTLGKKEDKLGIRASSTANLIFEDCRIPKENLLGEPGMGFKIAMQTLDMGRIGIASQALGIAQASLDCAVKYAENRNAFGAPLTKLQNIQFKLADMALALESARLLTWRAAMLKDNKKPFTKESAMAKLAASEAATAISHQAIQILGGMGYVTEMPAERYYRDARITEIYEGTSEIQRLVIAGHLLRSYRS
From the text: (§1) To validate the MS result, the pulldowns were repeated and eluates run on a gel for anti-VLCAD Western blot analysis. VLCAD was detected in the MCL-1 SAHBD pulldown eluate, confirming the MS results. […] All peptides faithfully recapitulated native BH3-binding propensities for endogenous MCL-1 protein (FIG. 8). The eluates were then probed for the other members of the acyl-CoA dehydrogenase family that manifest shorter fatty acid substrate specificities. MCL-1 SAHBD was able to pull down VLCAD, but not MCAD or SCAD (FIG. 9). Because the traditional MCL-1 staple location differs from that of the BIM, BID, and BAD SAHBs, it was important to confirm that the observed VLCAD binding specificity was due to BH3 sequence selectivity, not staple position. A BIM SAHB with the traditional MCL-1 staple (BIM SAHBF), and a MCL-1 stapled peptide with the traditional BIM staple (MCL-1 SAHBA), were generated. […]
(§2) Wild-type MEFs were trypsinized, washed once with cold PBS, and lysed on ice with NP-40 lysis buffer (50 mM Tris, pH 7.4, 150 mM NaCl, 0.5% (v/v) NP-40, complete protease inhibitor pellet (Roche)) using 1 ml of lysis buffer for every 10 million cells lysed. Cellular debris was pelleted at 14,000 g for 10 min at 4° C., and the supernatant was quantified using the BCA Protein Assay Kit (Thermo Fisher Scientific). […]

MCAD = biological target: T3, MCAD (mouse, UniProt P45952 26-421); experiment: streptavidin pull-down with biotinylated SAHB from cellular lysate; western blot for MCAD
T3 sequence (looked up): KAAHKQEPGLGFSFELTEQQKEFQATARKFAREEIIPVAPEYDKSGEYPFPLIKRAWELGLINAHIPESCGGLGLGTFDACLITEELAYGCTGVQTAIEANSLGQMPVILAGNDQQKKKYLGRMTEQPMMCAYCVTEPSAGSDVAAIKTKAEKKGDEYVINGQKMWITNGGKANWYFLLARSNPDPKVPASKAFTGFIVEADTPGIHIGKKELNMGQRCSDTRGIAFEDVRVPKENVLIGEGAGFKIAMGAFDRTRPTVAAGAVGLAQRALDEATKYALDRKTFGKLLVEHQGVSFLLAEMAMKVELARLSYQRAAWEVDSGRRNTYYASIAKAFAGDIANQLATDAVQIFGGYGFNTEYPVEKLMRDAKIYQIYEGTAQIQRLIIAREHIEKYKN
From the text: as §1, §2

[3] = biological target: recombinant VLCAD (mature human VLCAD lacking its cleavable leader sequence, aa 40-655, 10x His-tagged) (human) (UniProt P49748); experiment: biolayer interferometry; Biotin-PEG SAHB on streptavidin sensors, VLCAD in solution at the plotted concentrations
MCL-1ΔNΔC = MCL-1ΔNΔC (UniProt Q07820); experiment: biolayer interferometry; Biotin-PEG SAHB on streptavidin sensors, MCL-1ΔNΔC in solution at the plotted concentrations
Sequence of MCL-1ΔNΔC (Q07820 172-320, stated change not applied): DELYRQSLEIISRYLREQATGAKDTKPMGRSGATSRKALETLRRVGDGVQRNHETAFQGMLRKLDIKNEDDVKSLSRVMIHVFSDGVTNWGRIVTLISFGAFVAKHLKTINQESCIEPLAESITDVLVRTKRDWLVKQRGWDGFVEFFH

[4] = biological target: T4, native VLCAD (Very Long Chain Acyl CoA Dehydrogenase) from mouse embryonic fibroblast lysates (mouse, UniProt P50544 42-656); experiment: streptavidin pull-down with biotinylated SAHB from MEF lysate; western blot for VLCAD, densitometry ratio mutant/WT
T4 construct: also called endogenous VLCAD of mouse liver mitochondria
T4 sequence (looked up): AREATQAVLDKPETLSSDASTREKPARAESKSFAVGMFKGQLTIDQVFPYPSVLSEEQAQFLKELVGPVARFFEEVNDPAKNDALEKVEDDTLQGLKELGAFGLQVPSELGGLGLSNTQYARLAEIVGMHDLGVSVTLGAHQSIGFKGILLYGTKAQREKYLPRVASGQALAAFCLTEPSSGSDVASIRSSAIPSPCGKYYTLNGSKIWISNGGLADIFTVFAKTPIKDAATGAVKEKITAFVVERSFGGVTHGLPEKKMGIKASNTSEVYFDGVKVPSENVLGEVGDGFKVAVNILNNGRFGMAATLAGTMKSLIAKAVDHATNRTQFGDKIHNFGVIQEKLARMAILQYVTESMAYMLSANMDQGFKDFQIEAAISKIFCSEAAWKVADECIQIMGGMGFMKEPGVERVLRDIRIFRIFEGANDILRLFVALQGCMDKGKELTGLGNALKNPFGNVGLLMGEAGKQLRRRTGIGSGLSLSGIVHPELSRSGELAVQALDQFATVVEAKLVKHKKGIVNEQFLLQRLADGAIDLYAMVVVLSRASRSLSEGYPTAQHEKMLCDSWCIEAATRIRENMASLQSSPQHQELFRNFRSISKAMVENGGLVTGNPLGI
Experimental: Wild-type MEFs were trypsinized, washed once with cold PBS, and lysed on ice with NP-40 lysis buffer (50 mM Tris, pH 7.4, 150 mM NaCl, 0.5% (v/v) NP-40, complete protease inhibitor pellet (Roche)) using 1 ml of lysis buffer for every 10 million cells lysed. Cellular debris was pelleted at 14,000 g for 10 min at 4° C., and the supernatant was quantified using the BCA Protein Assay Kit (Thermo Fisher Scientific). 2 mg of lysate per pulldown were then exposed to 50 μL of pre-equilibrated High Capacity Streptavidin Agarose beads (Thermo Fisher Scientific). […] The beads were then pelleted and washed with NP-40 lysis buffer three times before eluting the protein sample from the beads by heating at 70° C. for 10 min in SDS loading buffer. Samples were then subjected to electrophoresis and either Western analysis or Coomassie stain (SimplyBlue Safe Stain, Thermo Fisher Scientific). The antibodies used for Western analysis were the following: MCL-1 (Rockland 600-401-394; 1:1000 in 3% BSA), VLCAD (Thermo Fisher Scientific PA5-29959; 1:1000 in 1% milk+0.1% Tween-20), MCAD (Thermo Fisher Scientific PA5-27201; 1:1000 in 3% BSA), and SCAD (Abcam ab154823; 1:1000 in 3% BSA). Coomassie stained gels were then processed for proteomics analysis (see below). Biotinylated SAHB pulldowns of recombinant protein were performed as above incubating 5 nmol of SAHB with 10 pmol of rVLCAD in 500 μL total volume. […]

[5] = biological target: T4, native VLCAD (Very Long Chain Acyl CoA …); experiment: DSS chemical crosslinking of intact mouse liver mitochondria, Western (FIG. 32)
From the text: To investigate the native interaction between VLCAD and MCL-1, intact mitochondria were isolated from mouse livers and exposed to the chemical crosslinker DSS. Vehicle or DSS-treated mitochondria were then lysed and the resultant lysate run on a reducing/denaturing gel.

B1: recombinant VLCAD (mature human VLCAD lacking its cleavable leader sequence, aa 40-655, 10x His-tagged) (protein)
chain: YAGGAAQLALDKSDSHPSDALTRKKPAKAESKSFAVGMFKGQLTTDQVFPYPSVLNEEQTQFLKELVEPVSRFFEEVNDPAKNDALEMVEETTWQGLKELGAFGLQVPSELGGVGLCNTQYARLVEIVGMHDLGVGITLGAHQSIGFKGILLFGTKAQKEKYLPKLASGETVAAFCLTEPSSGSDAASIRTSAVPSPCGKYYTLNGSKLWISNGGLADIFTVFAKTPVTDPATGAVKEKITAFVVERGFGGITHGPPEKKMGIKASNTAEVFFDGVRVPSENVLGEVGSGFKVAMHILNNGRFGMAAALAGTMRGIIAKAVDHATNRTQFGEKIHNFGLIQEKLARMVMLQYVTESMAYMVSANMDQGATDFQIEAAISKIFGSEAAWKVTDECIQIMGGMGFMKEPGVERVLRDLRIFRIFEGTNDILRLFVALQGCMDKGKELSGLGSALKNPFGNAGLLLGEAGKQLRRRAGLGSGLSLSGLVHPELSRSGELAVRALEQFATVVEAKLIKHKKGIVNEQFLLQRLADGAIDLYAMVVVLSRASRSLSEGHPTAQHEKMLCDTWCIEAAARIREGMAALQSDPWQQELYRNFKSISKALVERGGVVTSNPLGF
B1 was tested, and the “VLCAD enzymatic activity (reduction of ferrocenium hexafluorophosphate with palmitoyl-CoA as substrate)” value (MCL-1 SAHBD) was “Pre-incubation of VLCAD with MCL-1 SAHBD caused a decrease in enzymatic activity” and the “VLCAD enzymatic activity (reduction of ferrocenium hexafluorophosphate with palmitoyl-CoA as substrate)” value [1] was “an effect not observed when MCL-1 SAHBs that do not bind VLCAD were added”.

B2: MCL-1 SAHBD V220A (peptide)
peptide: Biotin-RKALETLRRVGDGAARNH[S5]TAF
modifications: staple (positions not given here); not fully specified (residue 15, bridges); also: second staple residue not placed
B2 was tested, and the Kd [2] was 1.7 µM.

B3: MCL-1 SAHBD (peptide)
peptide: RKALETLRRVGDGV[S5]RNH[S5]TAF
modifications: staple 15-19; also: derivatised forms: N-terminal biotin, Btn-PEG, fluorinated analog
notes: One entry for all derivatised forms (biotin, Btn-PEG, fluorinated, underivatised); the form used is named under assay in each row; also called Btn-MCL-1 SAHBD; Biotin-PEG-MCL-1 SAHBD
B3 was tested, and the binding result (SCAD) was “no binding”, the binding result (MCAD) was “no binding” and the EC50 (read off the curve) [3] was 3 µM. The EC50 (read off the curve) (MCL-1ΔNΔC) was 0.2 µM.

B4: MCL-1 SAHBD H224A (peptide)
peptide: RKALETLRRVGDGVARNAATAF
modifications: staple (positions not given here); not fully specified (residues 15, 19, bridges); also: biotinylated, site not given here
notes: MCL-1 numbering
B4: no binding [4].

B5: endogenous MCL-1 protein from mouse embryonic fibroblasts (other, UniProt P97287 1-331, looked up)
chain: MFGLRRNAVIGLNLYCGGASLGAGGGSPAGARLVAEEAKARREGGGEAALLPGARVVARPPPVGAEDPDVTASAERRLHKSPGLLAVPPEEMAASAAAAIVSPEEELDGCEPEAIGKRPAVLPLLERVSEAAKSSGADGSLPSTPPPPEEEEDDLYRQSLEIISRYLREQATGSKDSKPLGEAGAAGRRALETLRRVGDGVQRNHETAFQGMLRKLDIKNEGDVKSFSRVMVHVFKDGVTNWGRIVTLISFGAFVAKHLKSVNQESFIEPLAETITDVLVRTKRDWLVKQRGWDGFVEFFHVQDLEGGIRNVLLAFAGVAGVGAGLAYLIR
notes: also called native MCL-1; endogenous/native MCL-1
B5: binds [5].
